This passage reports Kd results from article PMC8319308.

In this assay the target is Gx-SB (protein G adapter domain fused to the small BiT fragment of split NanoLuc) (UniProt P06654). In words: other; 4C2-SB (SB1) conjugate with 19C7-LB; LB-SB affinity.

One may read the Kd as the constant that tells how readily two partners part at equilibrium. A higher Kd goes with weaker binding. The substance “Gx-LB (protein G adapter domain fused to the large BiT fragment of split NanoLuc) (from UniProt P06654)” gave a dissociation constant Kd of 2500 nM.
